Publication doi:10.1101/2021.06.17.448874
Where “and” joins values, the source holds several entries; their conditions need not be identical. Identical values can stand only once.

Key:
[1] = biological target: microtubules polymerised from porcine brain tubulin, taxol-stabilised (porcine) (UniProt P02550); test: co-sedimentation
[2] = biological target: subtilisin-digested microtubules (lacking E-hooks) (porcine) (UniProt P02550); test: co-sedimentation

Substance	shift to pellet (%) [1]	shift to pellet (%) [2] [%]
KLP-18 C-stalk (C-terminal half of the KLP-18 stalk) (domain or fragment)	52.7% and 50.8%	26.7
MBP-MESP-1 (meiotic spindle 1) (natural protein)	56.1% and 41.6%	
